Measurements published in patent US20250281587A1 (ELANCO US, published 2025).

Target: T1, recombinant mouse IL-1RI Fc chimera (R&D 771-MR-100) (mouse, UniProt P13504 20-338)
T1 construct: Coated on ELISA plates at 1 µg/ml; Used instead of canine or feline IL-1RI, which were not commercially available; also called IL-1RI receptor; Fc part of the bought chimera not given
T1 sequence (looked up): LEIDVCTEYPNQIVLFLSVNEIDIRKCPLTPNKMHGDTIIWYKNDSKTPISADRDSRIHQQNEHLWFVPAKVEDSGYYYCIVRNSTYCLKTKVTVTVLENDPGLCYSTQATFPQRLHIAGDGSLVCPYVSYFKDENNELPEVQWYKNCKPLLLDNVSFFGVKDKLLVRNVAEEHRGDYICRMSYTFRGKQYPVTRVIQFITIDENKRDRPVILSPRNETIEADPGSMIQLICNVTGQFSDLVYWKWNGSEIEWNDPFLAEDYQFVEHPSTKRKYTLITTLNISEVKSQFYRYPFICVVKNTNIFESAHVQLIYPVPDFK
Assay: ELISA, mouse IL-1RI Fc chimera coated, detection with biotinylated anti-fIL-1β antibody

B1: purified feline IL-1β wild type (ligand)
chain: MGSAAIQSQDYTFRDISQKSLVLSGSYELRALHLNGQNMNQQVVFRMSFVHGEENSKKIPVVLCIKKNNLYLSCVMKDGKPTLQLEMLDPKVYPKKKMEKRFVFNKTEIKGNVEFESSQFPNWYISTSQAEEMPVFLGNTKGGQDITDFIMESASTSHHHHHHGGCG
notes: also called purified wild type feline IL-1β; recombinant feline wild type IL-1β
  binding result: binds
